Measurements from publication PMC9029856, “Impact of Different [Tc(N)PNP]-Scaffolds on the Biological Properties of the Small cRGDfK Peptide: Synthesis, In Vitro and In Vivo Evaluations” (Molecules, 2022).
Values joined by “and” are separate entries in the source; they are usually repeats but may differ in a detail not shown here. Equal values may be shown once.

System: M21 (αvβ3-positive) and M21L (αvβ3-negative) melanoma tumors
Experiment: not given
Format: in vivo, NSG mice
Details: 120 min p.i.
Description: In vivo tumor uptake. The in vivo integrin targeting properties of the [^99mTcN(PNP)]-labeled peptide were evaluated in M21 (integrin-positive) and M21L (integrin-negative) melanoma-bearing mice by comparing the percentage of tumor uptake of the three compounds in tumors and the respective target-to-non-target ratios. Biodistribution data outlined some differences in organ uptake compared with those attained in rats at the same injection time because the rate of metabolism is different in each animal species. […] The high renal uptake of radiotracers is partially due to their rate of excretion as well as to a specific uptake by integrins expression in the kidneys; for ^99mTc3, the M21-to-kidney ratio was 1.37.
Human melanoma M21(αvβ3-positive) were injected subcutaneously (s.c. 1 × 10^6 cells) in the right flank of six week-old male NSG mice (Charles River Laboratories). As a negative control, M21L (αvβ3-negative) were inoculated s.c. (1 × 10^6 cells) in the left flank of the same mice. Fifteen days after the inoculation, when the tumors are palpable (5–3 mm), the mice were injected in the tail vein with the selected radiolabeled peptide (20 µCi/100 µL of PBS). A group of six animals was sacrificed at 120 min p.i. by CO2 inhalation. A sample of blood was collected and tumors and normal tissues of interest were dissected, rinsed to remove the excess of blood, weighted, and their radioactivity measured using a NaI counter. Results are expressed as the percentage of injected activity per gram (% IA/g) and tumor-to-organ ratios were calculated.

| Substance | M21/M21L ratio | M21/blood ratio | M21/kidneys ratio | M21/liver ratio | M21/lung ratio | M21/muscle ratio |
| --- | --- | --- | --- | --- | --- | --- |
| [Tc(N)(H2NS-cRGDfK)(PNP3)]^+ [^99mTc1] | 1.83 | 29.96 | 0.77 | 0.88 | 2.53 | 9.15 |
| [Tc(N)(H2NS-cRGDfK)(PNP3OH)]^+ [^99mTc3] | 5.60 | 73.42 | 1.23 | 1.11 | 2.98 | 16.72 |
| [Tc(N)(H2NS-cRGDfK)(PNP43)]^+ [^99mTc2] | 2.57 | 11.26 | 0.32 | 0.44 | 1.04 | 3.54 |

Same assay, conditions: integrin-negative M21L control tumor, 120 min p.i.

| Substance | M21L tumor uptake [%IA/g] |
| --- | --- |
| [Tc(N)(H2NS-cRGDfK)(PNP3)]^+ [^99mTc1] | 1.73 ± 0.19 |
| [Tc(N)(H2NS-cRGDfK)(PNP3OH)]^+ [^99mTc3] | 0.70 ± 0.16 |
| [Tc(N)(H2NS-cRGDfK)(PNP43)]^+ [^99mTc2] | 0.42 ± 0.05 |

Same assay, conditions: integrin-positive M21 xenograft, 120 min p.i.

| Substance | M21 tumor uptake |
| --- | --- |
| [Tc(N)(H2NS-cRGDfK)(PNP3)]^+ [^99mTc1] | 3.2 ± 0.6 %IA/g and 3.17 ± 0.60 %IA/g |
| [Tc(N)(H2NS-cRGDfK)(PNP3OH)]^+ [^99mTc3] | 3.9 ± 0.7 %IA/g and 3.92 ± 0.69 %IA/g |
| [Tc(N)(H2NS-cRGDfK)(PNP43)]^+ [^99mTc2] | 1.1 ± 0.2 %IA/g and 1.08 ± 0.24 %IA/g |

Same assay, conditions: tumor-bearing mice, 120 min p.i.

| Substance | Blood [%IA/g] | Heart [%IA/g] | Intestine [%IA/g] | Kidneys [%IA/g] | Liver [%IA/g] | Lungs [%IA/g] | Muscle [%IA/g] | Spleen [%IA/g] | Stomach [%IA] |
| --- | --- | --- | --- | --- | --- | --- | --- | --- | --- |
| [Tc(N)(H2NS-cRGDfK)(PNP3)]^+ [^99mTc1] | 0.07 ± 0.02 | 0.47 ± 0.03 | 2.30 ± 0.10 | 4.10 ± 0.37 | 3.59 ± 0.31 | 1.25 ± 0.23 | 0.37 ± 0.04 | 1.61 ± 0.01 | 1.22 ± 0.15 |
| [Tc(N)(H2NS-cRGDfK)(PNP3OH)]^+ [^99mTc3] | 0.05 ± 0.01 | 0.44 ± 0.09 | 3.09 ± 0.62 | 3.34 ± 0.18 | 3.22 ± 0.24 | 1.32 ± 0.20 | 0.23 ± 0.03 | 1.43 ± 0.19 | 1.05 ± 0.14 |
| [Tc(N)(H2NS-cRGDfK)(PNP43)]^+ [^99mTc2] | 0.12 ± 0.03 | 0.48 ± 0.07 | 2.45 ± 0.29 | 3.38 ± 0.36 | 2.43 ± 0.23 | 1.04 ± 0.08 | 0.31 ± 0.05 | 1.26 ± 0.04 | 1.02 ± 0.16 |

System: not listed separately
Experiment: Cysteine (Cys) and Glutathione (GSH) challenge
Format: physicochemical
Details: excess free L-cysteine (10 mM), 37 °C, pH 7.4, 24 h
Description: The inertness of the radioconjugates under conditions relevant for in vivo applications were assessed by evaluating the stability of ^99mTc1–3 in solution and after incubation (37 °C) with transchelating agents (glutathione and L-cysteine, 10–1 mM, pH 7.4).
Cysteine (Cys) and Glutathione (GSH) Challenge. Challenge experiments were carried out with the purified complex using an excess of Cys or GSH. An aliquot (50 µL) of an aqueous stock solution of cysteine hydrochloride (10 mM or 2 mM) was added to a propylene test tube containing PBS (400 µL, pH 7.4) and the relevant [^99mTc(N)(H2NS-cRGDfK)(PNP)]^+ complex (50 µL). The mixture was vortexed and incubated at 37 °C for 24 h. A control reaction containing an equal volume of water, instead of cysteine hydrochloride, was studied in parallel. At 0.5, 1, 3, and 24 h, aliquots of the reaction mixture were withdrawn and analyzed by HPLC chromatography. A similar procedure was applied using GSH (50 µL, 10 mM) as challenger.

| Substance | % RCP in challenge with L-cysteine [%] |
| --- | --- |
| [Tc(N)(H2NS-cRGDfK)(PNP3)]^+ [^99mTc1] | > 95 |
| [Tc(N)(H2NS-cRGDfK)(PNP3OH)]^+ [^99mTc3] | 27.31 ± 3.6 |
| [Tc(N)(H2NS-cRGDfK)(PNP43)]^+ [^99mTc2] | > 95 |

Same assay, conditions: excess glutathione, 37 °C, pH 7.4, 24 h

| Substance | % RCP in challenge with GSH [%] |
| --- | --- |
| [Tc(N)(H2NS-cRGDfK)(PNP3)]^+ [^99mTc1] | > 95 |
| [Tc(N)(H2NS-cRGDfK)(PNP3OH)]^+ [^99mTc3] | 73.33 ± 2.8 |
| [Tc(N)(H2NS-cRGDfK)(PNP43)]^+ [^99mTc2] | > 95 |

System: not given
Experiment: not given
Format: physicochemical
Details: not given
Description: To explore the impact of the PNP ligand on the lipophilicity of the complexes, Log Ps in a mixture of n-octanol and PBS were determined. The lipophilicity decreased in the order ^99mTc1 > ^99mTc2 > ^99mTc3. The lipophilic character of each compound correlated well with the corresponding HPLC retention time and protein binding behavior.
Determination of log P values. n-Octanol/PBS partition coefficients were determined by vortex mixing (20 min) 3.0 mL of n-octanol, 3.0 mL of PBS and 100 µL of the radiolabeled compound purified as above. After centrifugation (3000 g for 10 min), aliquots (100 µL) of both the organic and the aqueous phases were collected and counted with a γ-counter.

| Substance | Log P |
| --- | --- |
| [Tc(N)(H2NS-cRGDfK)(PNP3)]^+ [^99mTc1] | −1.72 ^1 |
| [Tc(N)(H2NS-cRGDfK)(PNP3OH)]^+ [^99mTc3] | −2.39 |
| [Tc(N)(H2NS-cRGDfK)(PNP43)]^+ [^99mTc2] | −1.95 |
